Reference: patent US20240400687A1 (Regeneron, published 2024)
Numbering of substitutions follows the chain as printed.

T1: mouse PD1 (mPD1) (mouse, UniProt Q02242 25-288)
T1 sequence (looked up): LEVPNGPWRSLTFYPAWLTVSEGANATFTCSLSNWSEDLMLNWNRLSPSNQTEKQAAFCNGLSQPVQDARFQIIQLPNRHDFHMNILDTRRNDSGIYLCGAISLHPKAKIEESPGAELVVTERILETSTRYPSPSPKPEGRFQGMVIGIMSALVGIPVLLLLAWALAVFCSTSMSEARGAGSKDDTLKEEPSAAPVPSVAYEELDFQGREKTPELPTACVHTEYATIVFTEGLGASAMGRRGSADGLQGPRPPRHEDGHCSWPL

B1: 1B12IgG1EN (antibody)
heavy 1: QVQLQQPGAELVRPGTSVKLSCKASGYTFTSYWMHWIKQRPGQGLEWIGVIDPSDNYTKYNQKFKGKATLTVDTSSSTAYMQLSSLTSEDSAVYFCAREGYYGSSPWFAYWGQGTLVTVSSASTKGPSVFPLAPSSKSTSGGTAALGCLVKDYFPEPVTVSWNSGALTSGVHTFPAVLQSSGLYSLSSVVTVPSSSLGTQTYICNVNHKPSNTKVDKKVEPKSCDKTHTCPPCPAPEAEGAPSVFLFPPKPKDTLMISRTPEVTCVVVDVSHEDPEVKFNWYVDGVEVHNAKTKPREEQYNSTYRVVSVLTVLHQDWLNGKEYKCKVSNKALPSSIEKTISKAKGQPREPQVYTLPPCRDELTKNQVSLWCLVKGFYPSDIAVEWESNGQPENNYKTTPPVLDSDGSFFLYSKLTVDKSRWQQGNVFSCSVMHEALHNHYTQKSLSLSPGK
heavy 2: B1 heavy 1 with Y353C, C358S, W370S, L372A, Y411V, H439R, Y440F
light: QIVMSQSPAILSASPGEKVTMTCRARSSVSYIHWYQQKPGSSPKPWIYATSNLASGVPGRFSGSGSGTSYSLTITRVEAEDAATYYCQQWSSKPPTFGGGTKLEIKRTVAAPSVFIFPPSDEQLKSGTASVVCLLNNFYPREAKVQWKVDNALQSGNSQESVTEQDSKDSTYSLSSTLTLSKADYEKHKVYACEVTHQGLSSPVTKSFNRGEC
notes: IgG, mCD20 x mCD20, 145.3 kDa; also called Molecule ID M
B2: 18B12-scFvFc (scFv, V domains shown)
VH: QVQLQQPGAELVRPGTSVKLSCKASGYTFTSYWMHWIKQRPGQGLEWIGVIDPSDNYTKYNQKFKGKATLTVDTSSSTAYMQLSSLTSEDSAVYFCAREGYYGSSPWFAYWGQGTLVTVSS
VL: QIVMSQSPAILSASPGEKVTMTCRARSSVSYIHWYQQKPGSSPKPWIYATSNLASGVPGRFSGSGSGTSYSLTITRVEAEDAATYYCQQWSSKPPTFGGGTKLEIK

Experiments:
mouse PD1 (mPD1) [1] = target: T1, mouse PD1 (mPD1); assay: cell-based or functional assay
mouse PD1 (mPD1) [2] = target: T1, mouse PD1 (mPD1); assay: flow cytometry on Jurkat/mPD1 cells
Method: Cells (HEK 293, MC38 over-expressing mCD20, or Jurkat over-expressing mPD1) were resuspended in FACS wash (PBS with 1% FBS) at 1×10⁶ cells/mL. The staining was performed in 1×10⁵ cells per well. The antibodies were diluted with a ratio of 1:5 from a starting concentration of 1.3×10⁻⁰⁷ M. The diluted antibodies were then added into the wells containing cells. Cells were stained for 30 min at 2-8° C. and washed twice with FACS wash buffer. APC-conjugated goat anti-human IgG (Jackson Immuno Research, 109-607-003, 1:400) or AF647-conjugated goat anti-mFc Fab (Jackson Immuno Research, 115-607-185, 1:400) was added to stain the cells for 30 min at 2-8° C. Following washing, cells were fixed in 2% paraformaldehyde for 30 min at 2-8° C. After two washes, stained cells were analyzed using BD LSRFortessa™ FACS instrument. The results were analyzed by FlowJo. FSC/SSC gates were used to select mononuclear cells.

Binder	Max % inhibition, luciferase bioassay, 1 nM CD3 bsAb (mouse PD1 (mPD1) [1])	binding result (mouse PD1 (mPD1) [2])
B1	19%	no binding
B2	–	no binding
